The target in assay [1] is T1, human TROP2-his protein (human, UniProt P09758 27-274).
T1 construct: Biotin-labelled in the ELISAs, unlabelled analyte in Biacore; also called biotin-labeled human TROP2-his protein; biotin human Trop2-his
T1 sequence: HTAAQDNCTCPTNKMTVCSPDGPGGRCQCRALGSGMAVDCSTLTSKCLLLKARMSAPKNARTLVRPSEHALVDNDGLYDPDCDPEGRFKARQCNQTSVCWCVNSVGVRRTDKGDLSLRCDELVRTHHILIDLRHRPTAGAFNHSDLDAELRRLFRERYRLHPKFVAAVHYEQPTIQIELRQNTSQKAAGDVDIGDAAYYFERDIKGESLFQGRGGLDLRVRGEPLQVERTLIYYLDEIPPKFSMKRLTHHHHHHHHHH
The assay can be described thus: competitive ELISA: mouse A1E4F7D4 coated at 2 ug/mL, antibody premixed with biotin human TROP2-his; blocked: binding of TROP2-his to coated A1E4F7D4 (self-competition). As for the experimental part: (§1) The mouse anti-TROP2 antibodies were tested for epitope binding in a competitive ELISA assay. […] ELISA plates were washed once with wash buffer (PBS+0.05% v/v Tween-20, PBST) and then blocked with 200 μl blocking buffer (5% w/v non-fatty milk in PBST) for 2 hours at 37° C. While blocking, the anti-TROP2 antibodies or controls were diluted with biotin labeled human TROP2-his protein (SEQ ID NO: 67, 34 ng/mL in 2.5% wA non-fatty milk in PBST), starting at 80 nM with a 5-fold serial dilution, and incubated at room temperature for 40 minutes. After plate washing for 4 times, the antibody/TROP2-his protein mixtures were added to the antibody coated plates, 100 μl per well. After incubation at 37° C. for 40 minutes, plates were washed 4 times again using wash buffer. Then the plates were added and incubated with 100 μl Peroxidase Streptavidin (1:10000 dilution in PBST buffer. Jackson Immunoresearch, Cat #016-030-084) for 40 minutes at 37° C. Plates were washed again using wash buffer. Finally, TMB was added and the reaction was stopped using 1M H₂SO₄. The absorbance of each well was read on a microplate reader using dual wavelength mode with 450 nm for TMB and 630 nm as the reference wavelength, and the OD (450-630) values were plotted against antibody concentration. Data was analyzed using Graphpad Prism software and IC₅₀ values were reported.
In general terms: ELISA stands for enzyme-linked immunosorbent assay.

The target in assay [2] is T1, human TROP2-his protein. The assay can be described thus: capture ELISA, captured antibody, biotin human TROP2-his in solution, OD(450-630). As for the experimental part: Plates were washed once with wash buffer (PBS+0.05% v/v Tween-20, PBST) and then blocked with 200 μl/well blocking buffer (5% w/v non-fatty milk in PBST) for 2 hours at 37° C. […] Plates containing captured anti-TROP2 antibodies were incubated with biotin-labeled human TROP2-his protein (prepared in house, SEQ ID NO: 67, 56.7 ng/mL in 2.5% w/v non-fatty milk in PBST, 100 μl/well) for 40 minutes at 37° C., washed 4 times, and incubated with streptavidin conjugated HRP (1:10000 dilution in PBST, Jackson Immuno Research, Cat #016-030-084, 100 μl/well) for 40 minutes at 37° C. After a final wash, plates were incubated with 100 μl/well ELISA substrate TMB (Innoreagents, Cat #TMB-S-002) at room temperature. The reaction was stopped in 3-10 minutes at room temperature with 50 μl/well 1M H₂SO₄, and the absorbance of each well was read on a microplate reader using dual wavelength mode with 450 nm for TMB and 630 nm as the reference wavelength. The OD (450-630) values were plotted against antibody concentration. Data was analyzed using Graphpad Prism software and EC₅₀ values were reported.

For assay [3], the target named is T2, cynomolgus TROP2-his protein (cynomolgus monkey, UniProt P09758 27-272 (human entry), limits assumed).
T2 construct: no cleavage site is stated; also called Cynomolgus monkey TROP2-his protein; monkey TROP2
T2 chain: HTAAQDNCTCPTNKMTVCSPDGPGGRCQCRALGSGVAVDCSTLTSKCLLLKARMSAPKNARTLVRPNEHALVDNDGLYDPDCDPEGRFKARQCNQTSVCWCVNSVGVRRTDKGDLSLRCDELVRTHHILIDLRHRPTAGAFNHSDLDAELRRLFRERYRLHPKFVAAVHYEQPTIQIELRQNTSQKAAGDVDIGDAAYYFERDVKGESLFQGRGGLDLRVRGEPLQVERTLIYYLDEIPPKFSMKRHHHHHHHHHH
The assay can be described thus: SPR Biacore T200, benchmark captured on Protein G chip, TROP2-his analyte. As for the experimental part:
(§2) Un-reacted moieties on the chip (biosensor) surface were blocked with ethanolamine. […] The antigen-antibody association kinetics was followed for 2 minutes and the dissociation kinetics was followed for 10 minutes. The association and dissociation curves were fit to a 1:1 Langmuir binding model using BIAcore evaluation software.
Background: Surface plasmon resonance follows binding to a sensor surface in real time, without labels.

Assay [4] deals with T1, human TROP2-his protein. The assay is described as above. As for the experimental part:
as §2

Assay [5] deals with T1, human TROP2-his protein. Kind of assay: competitive ELISA: BM1 coated at 1 ug/mL, antibody premixed with biotin human TROP2-his; blocked: binding of TROP2-his to coated BM1; partial only: OD drops from about 1.45 to a plateau of about 0.8. As for the experimental part: as §1

This note sets out measurements from patent US20240207432A1 (BIOSION, published 2024).

Usually IC50 stands for the concentration that gives 50% inhibition. Read a high IC50 as a need for much substance. The EC50 is the concentration giving half of the maximal effect. High values mean a less potent agent, low ones a more potent agent. The term Kd denotes the constant that tells how readily two partners part at equilibrium. Higher therefore signals weaker binding.

B1: mouse antibody A1E4F7D4 (antibody, V domains shown)
VH: QVQLQQSGAELAKPGTSVKMSCEASGYSFTTHWIHWMKQRPGQGLEWIGTIFPSNAYAVYNQKFRDRAIMTADRSSTTAYIQLTGLTSEDSAVYYCARASYFDYWGQGTTLTVSS
VL: DILLTQSPATLSVSPGERVTFSCRASQNIGTSIHWFQQRTTGSPRLLIKYASESISGIPSRFSGSGSGTDFTLHINSVESEDIAHYYCQHSHSWPFTFGSGTKLEIQ
notes: Mouse monoclonal IgG purified from hybridoma supernatant; also called Mouse A1E4F7D4
As for B1, the IC50 with human TROP2-his protein [1] stood at 0.0675 nM.

B2: benchmark (in house prepared sacituzumab) (antibody, human IgG1, kappa, V domains shown)
VH: SVQLQQSGSELKKPGASVKVSCKASGYTFTNYGMNWVKQAPGQGLKWMGWINTYTGEPTYTDDFKGRFAFSLDTSVSTAYLQISSLKADDTAVYFCARGGFGSSYWYFDVWGQGSLVTVSS
VL: DIQLTQSPSSLSASVGDRVSITCKASQDVSIAVAWYQQKPGKAPKLLIYSASYRYTGVPDRFSGSGSGTDFTLTISSLQPEDFAVYYCQQHYITPLTFGAGTKVEIKR
notes: also called BM; BM1
In the assay with human TROP2-his protein [2], B2 showed an EC50 of 0.487 nM. For the same molecule, the Kd in assay [3] was found to be 0.557 nM; with human TROP2-his protein [4] it was 0.868 nM.

B3: mouse antibody C1B3B12D2 (antibody, V domains shown)
VH: QVQLQQSGPELVRPGTSVKMSCKAAGYTFTKFWIGWVKQRPGHGLEWIGNIYPGGAYINYNENFKGKATLTADTFSSTAYMQLNSLTSADSAIYYCAREGSSGYWGQGTTLTVSS
VL: DIVMTQSPSSLTVTAGEKVTLSCKCSQSLLNSGTQENYLTWYQQKPGQPPKMLIYWASIREPGVPDRFTGSGSGTDFTLTINNVQAEDLAVYYCQHDYSYPFTFGSGTKLEIK
notes: Mouse monoclonal IgG purified from hybridoma supernatant
B3: the half-maximal inhibitory concentration (IC50) with human TROP2-his protein [5] is ~0.6 nM.
